Experiment [1] addresses T1, human HER2 (human epidermal growth factor receptor 2) (human, UniProt P04626 23-1255).
T1 construct: whole, on cells; also called ERBB2; h-HER2
As to the kind of experiment: flow cytometry whole cell binding, CHO-h-HER2 stable cells. How it is done: (§1) Binding of bivalent anti-HER2 VHH-Fc clones to human HER2 stably transfected CHO cells (CHO-h-HER2 stable cells) was determined by flow cytometry whole cell binding (WCB) assays. Briefly, antibodies were incubated at different concentrations with CHO-h-HER2 stable cells (0.2×10⁶/ml) in 100 μl/well in 96-well plates in FACS buffer (PBS with 1.0% FBS) for 30 min. After washing, Alexa Fluor 488 conjugated anti-human IgG Fc secondary antibody (Alexa Fluor® 488 AffiniPure Goat Anti-Human IgG, Fcγ fragment specific, Jackson labs, 1:750 dilution) was added, and incubated for 30 min. After washing, Median Fluorescence Intensity (MFI) was measured using CytoFlex (Beckman Coulter) by gating live cell population with FITC channel. Whole cell binding of VHH-Fc clones to endogenously expressed HER2 in human cancer cells was also determined using N87 (Stomach cancer cell line) and SKBR3 (Breast cancer cell line) cells, both of which are cancer cells with high HER2 expressions.

Experiment [2] deals with T1, human HER2 (human epidermal growth …). As to the kind of experiment: flow cytometry whole cell binding, N87 cells (endogenous HER2). How it is done: as §1
For orientation: A flow cytometer gives signals particle by particle.

The target is the same in experiment [3]. Put plainly: cell-based or functional assay.
For experiment [4] the target is unchanged. As to the kind of experiment: cell-based or functional assay. The source holds these as a separate data set.
Experiment [5] addresses T2, human HER2-Domain II-his protein (human, UniProt P04626 196-319).
T2 construct: also called HER2 domain II fragment (Ser196-Asn319); not shown: his tag
As to the kind of experiment: ELISA, plate coated with human HER2-Domain II-his. How it is done:
(§2) X axis is values of antibody concentration in nanomolar. Y axis is values of OD at 450 nm.
(§3) Binding of anti-HER2 VHH-Fc clones to different domains of human HER2 ECD was determined by ELISA binding assays using his-tagged HER2 domain fragments. Human HER2 domain IV fragment (Pro489-Cys630) was purchased from Sinobiological, domain II+III+IV fragment (Ser196-Cys630) & domain II fragment (Ser196-Asn319) were made.

For experiment [6], the target named is T3, human HER2-Domain IV-his protein (human, UniProt P04626 489-630).
T3 construct: also called HER2 domain IV fragment (Pro489-Cys630); not shown: his tag
Put plainly: ELISA, plate coated with human HER2-Domain IV-his. How it is done:
as §2, §3
On the technique in general: An ELISA detects its analyte on a solid surface through an enzyme-linked reagent.

The target in a further experiment is T4, mouse TROP2 (mouse, UniProt Q8BGV3 25-317).
T4 construct: whole, on cells; also called m-TROP2
T4 sequence (looked up): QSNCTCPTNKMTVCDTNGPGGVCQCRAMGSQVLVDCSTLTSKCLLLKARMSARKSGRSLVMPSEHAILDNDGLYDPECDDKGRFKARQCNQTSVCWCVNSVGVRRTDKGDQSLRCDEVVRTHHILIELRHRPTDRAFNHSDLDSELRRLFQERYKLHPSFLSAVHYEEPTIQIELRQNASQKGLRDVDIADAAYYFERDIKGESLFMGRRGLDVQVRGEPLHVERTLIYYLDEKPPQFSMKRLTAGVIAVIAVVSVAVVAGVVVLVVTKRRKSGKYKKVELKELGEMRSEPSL
Put plainly: flow cytometry whole cell binding, m-TROP2 stably transfected 293T cells.

Experiment [7] deals with T5, human TROP2 (Trophoblast cell-surface antigen 2) (human, UniProt P09758 27-323).
T5 construct: whole, on cells; also called TACSTD2; h-TROP2
T5 sequence (looked up): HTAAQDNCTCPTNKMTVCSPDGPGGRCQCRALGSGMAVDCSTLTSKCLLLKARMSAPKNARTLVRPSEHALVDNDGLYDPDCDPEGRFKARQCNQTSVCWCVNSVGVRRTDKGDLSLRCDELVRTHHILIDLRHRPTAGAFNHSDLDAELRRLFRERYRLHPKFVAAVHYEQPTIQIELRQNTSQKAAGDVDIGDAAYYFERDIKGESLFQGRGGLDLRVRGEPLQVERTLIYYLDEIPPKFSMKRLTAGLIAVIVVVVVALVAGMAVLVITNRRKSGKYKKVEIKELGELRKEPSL
As to the kind of experiment: flow cytometry whole cell binding, h-TROP2 stably transfected CHO cells. As for the experimental part:
Binding of bivalent anti-TROP2 VHH-Fc clones to human TROP2 in human TROP2 stably transfected CHO cells (CHO-h-TROP2 stable cells) were determined by flow cytometry whole cell binding (WCB) assays. Briefly, antibodies were incubated at different concentrations with CHO-h-TROP2 stable cells (0.2×10⁶/ml) in 96-well plates (100 μl/well) in FACS buffer for 30 min. After washing, Alexa Fluor 488 conjugated anti-human IgG Fc secondary antibody was added, and incubated for 30 min. After washing, MFI was measured using CytoFlex by gating live cell population with FITC channel. EC50 of binding was calculated using GraphPad Prism7.0.

Experiment [8] addresses T6, human TROP2 (Trophoblast cell-surface antigen 2) (human, UniProt P09758 27-323).
T6 chain: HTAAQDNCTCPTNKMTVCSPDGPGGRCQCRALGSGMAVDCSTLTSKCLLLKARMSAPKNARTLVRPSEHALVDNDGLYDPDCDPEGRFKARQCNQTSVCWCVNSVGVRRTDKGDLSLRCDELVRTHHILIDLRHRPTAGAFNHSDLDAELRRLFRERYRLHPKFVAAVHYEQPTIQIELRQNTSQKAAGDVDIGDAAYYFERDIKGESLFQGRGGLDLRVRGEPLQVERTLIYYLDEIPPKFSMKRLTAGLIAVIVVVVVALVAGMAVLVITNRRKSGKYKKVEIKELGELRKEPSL
As to the kind of experiment: flow cytometry whole cell binding, SKBR3.

What is called EC50 is the concentration needed to bring the measured effect to its halfway point.

B1: anti-HER2 VHH-Fc clone 11D5 (bivalent VHH-Fc of Example 2) (antibody, V domains shown)
VH: QVQLVESGGGVVQPGRSLRLSCAASGSTFSSLAMHWVRQAPGKERELVAAISYSGGYTYYADSVKGRFTISRDNSKNTLYLQMNSLRAEDTAVYYCAASSIFIGAYDYWGQGTLVTVSS
notes: not shown: human IgG1 Fc region: hinge region and constant domains CH2 and CH3
As to B1, the EC50 in experiment [1] came to 2.09 nM; in experiment [2] it was 3.14 nM. Besides, the “IC50 (nM) in AU-565 cells, anti-proliferation” value in [3] was 0.84 nM. Further, in experiment [4], the “IC50 (nM) in AU-565 cells, killing in the presence of PBMCs” value was determined as 0.38 nM. The “IC50 (nM) in SKBR3 cells, killing in the presence of PBMCs” value in experiment [4] was found to be 0.29 nM. Besides, the binding result in experiment [5] and in experiment [6] was “no binding” throughout.

B2: anti-TROP2 VHH-Fc clone Alpaca 3H9 (antibody, human IgG1, V domains shown)
VH: LVQLVESGGGLVQAGGSQRLSCAVSGRAFAYYAMGWFRQAPGKEREFVAAIAGSGDSTYYADSVKGRFTISRDYAKNTNYLQMNSLKPEDTAVYYCAAAGGTFYSGTAVATRSSQYDYWGQGTQVTVSS
notes: domain: hinge region and constant domains (CH2 and CH3); bivalent VHH-Fc, human IgG1 Fc; also called 3H9-Fc
On to B2, for which the figures for the EC50 (with mouse TROP2; in experiment [7]; in experiment [8]) were 760 nM, 1.46 nM and 1.76 nM, respectively.

Source of the values: US20260176373A1 (BRIGHT BIOLOGICS, published 2026).
